We go through 34 variants from the Human Domainome abundance scans (Beltran et al. 2025).

B1: Transcriptional regulator ERG, residues 117 to 197; numbered along this chain, P11308 (parent)
chain: NMTTNERRVIVPADPTLWSTDHVRQWLEWAVKEYGLPDVNILLFQNIDGKELCKMTKDDFQRLTPSYNADILLSHLHYLRE

± gives the uncertainty stated by the source.

Variants of B1 are the subject of the data set. Put plainly: abundance fitness (aPCA) (normalised: wild type 0, dead -1); higher = more abundant; growth selection in yeast, the domain comes from the species named. The conditions noted are these: Homo sapiens.
Regarding NMTTNERRVIVPADPTLWSTDHVRQWLWWAVKEYGLPDVNILLFQNIDGKELCKMTKDDFQRLTPSYNADILLSHLHYLRE, the abundance fitness was -0.16 ± 0.058.

As for NMTTNERRVIVPADPTLWSTDHVRQWLVWAVKEYGLPDVNILLFQNIDGKELCKMTKDDFQRLTPSYNADILLSHLHYLRE, the abundance fitness is -0.04 ± 0.042. For the variant NMTTNERRVIVPADPTLWSTDHVRQWLRWAVKEYGLPDVNILLFQNIDGKELCKMTKDDFQRLTPSYNADILLSHLHYLRE, the abundance fitness is -0.095 ± 0.039.

On to NMTTNERRVIVPADPTLWSTDHVRQWLTWAVKEYGLPDVNILLFQNIDGKELCKMTKDDFQRLTPSYNADILLSHLHYLRE, for which the abundance fitness is -0.031 ± 0.061.

As to NMTTNERRVIVPADPTLWSTDHVRQWLIWAVKEYGLPDVNILLFQNIDGKELCKMTKDDFQRLTPSYNADILLSHLHYLRE, the abundance fitness is -0.108 ± 0.092. The result for NMTTNERRVIVPADPTLWSTDHVRQWLFWAVKEYGLPDVNILLFQNIDGKELCKMTKDDFQRLTPSYNADILLSHLHYLRE reads -0.24 ± 0.13; that for NMTTNERRVIVPADPTLWSTDHVRQWLKWAVKEYGLPDVNILLFQNIDGKELCKMTKDDFQRLTPSYNADILLSHLHYLRE, -0.041 ± 0.064.

For NMTTNERRVIVPADPTLWSTDHVRQWLHWAVKEYGLPDVNILLFQNIDGKELCKMTKDDFQRLTPSYNADILLSHLHYLRE, the abundance fitness is 0.005 ± 0.12. Take NMTTNERRVIVPADPTLWSTDHVRQWLYWAVKEYGLPDVNILLFQNIDGKELCKMTKDDFQRLTPSYNADILLSHLHYLRE: the abundance fitness is -0.093 ± 0.087. Regarding NMTTNERRVIVPADPTLWSTDHVRQWLQWAVKEYGLPDVNILLFQNIDGKELCKMTKDDFQRLTPSYNADILLSHLHYLRE, the abundance fitness is -0.062 ± 0.068.

For the variant NMTTNERRVIVPADPTLWSTDHVRQWLDWAVKEYGLPDVNILLFQNIDGKELCKMTKDDFQRLTPSYNADILLSHLHYLRE, the abundance fitness was -0.146 ± 0.091. On to NMTTNERRVIVPADPTLWSTDHVRQWLLWAVKEYGLPDVNILLFQNIDGKELCKMTKDDFQRLTPSYNADILLSHLHYLRE, for which the abundance fitness was -0.09 ± 0.049.

On to NMTTNERRVIVPADPTLWSTDHVRQWLNWAVKEYGLPDVNILLFQNIDGKELCKMTKDDFQRLTPSYNADILLSHLHYLRE, for which the abundance fitness worked out at 0.012 ± 0.081. The result for NMTTNERRVIVPADPTLWSTDHVRQWLPWAVKEYGLPDVNILLFQNIDGKELCKMTKDDFQRLTPSYNADILLSHLHYLRE reads -0.534 ± 0.13; that for NMTTNERRVIVPADPTLWSTDHVRQWLAWAVKEYGLPDVNILLFQNIDGKELCKMTKDDFQRLTPSYNADILLSHLHYLRE, -0.022 ± 0.045.

For the variant NMTTNERRVIVPADPTLWSTDHVRQWLCWAVKEYGLPDVNILLFQNIDGKELCKMTKDDFQRLTPSYNADILLSHLHYLRE, the abundance fitness is -0.037 ± 0.066. The result for NMTTNERRVIVPADPTLWSTDHVRQWLSWAVKEYGLPDVNILLFQNIDGKELCKMTKDDFQRLTPSYNADILLSHLHYLRE reads -0.099 ± 0.047. The result for NMTTNERRVIVPADPTLWSTDHVRQYLEWAVKEYGLPDVNILLFQNIDGKELCKMTKDDFQRLTPSYNADILLSHLHYLRE reads 0.011 ± 0.073; that for NMTTNERRVIVPADPTLWSTDHVRQTLEWAVKEYGLPDVNILLFQNIDGKELCKMTKDDFQRLTPSYNADILLSHLHYLRE, -1.34 ± 0.32.

As for NMTTNERRVIVPADPTLWSTDHVRQRLEWAVKEYGLPDVNILLFQNIDGKELCKMTKDDFQRLTPSYNADILLSHLHYLRE, the abundance fitness was -0.808 ± 0.072. With NMTTNERRVIVPADPTLWSTDHVRQQLEWAVKEYGLPDVNILLFQNIDGKELCKMTKDDFQRLTPSYNADILLSHLHYLRE the figure was -0.811 ± 0.19.

Turning to NMTTNERRVIVPADPTLWSTDHVRQVLEWAVKEYGLPDVNILLFQNIDGKELCKMTKDDFQRLTPSYNADILLSHLHYLRE, the abundance fitness is -0.778 ± 0.081. For NMTTNERRVIVPADPTLWSTDHVRQPLEWAVKEYGLPDVNILLFQNIDGKELCKMTKDDFQRLTPSYNADILLSHLHYLRE, the abundance fitness was -0.956 ± 0.17.

For the variant NMTTNERRVIVPADPTLWSTDHVRQNLEWAVKEYGLPDVNILLFQNIDGKELCKMTKDDFQRLTPSYNADILLSHLHYLRE, the abundance fitness was -0.657 ± 0.21.

For NMTTNERRVIVPADPTLWSTDHVRQHLEWAVKEYGLPDVNILLFQNIDGKELCKMTKDDFQRLTPSYNADILLSHLHYLRE, the abundance fitness was -0.96 ± 0.36. The result for NMTTNERRVIVPADPTLWSTDHVRQSLEWAVKEYGLPDVNILLFQNIDGKELCKMTKDDFQRLTPSYNADILLSHLHYLRE reads -0.76 ± 0.094; that for NMTTNERRVIVPADPTLWSTDHVRQLLEWAVKEYGLPDVNILLFQNIDGKELCKMTKDDFQRLTPSYNADILLSHLHYLRE, -0.658 ± 0.073. As to NMTTNERRVIVPADPTLWSTDHVRQKLEWAVKEYGLPDVNILLFQNIDGKELCKMTKDDFQRLTPSYNADILLSHLHYLRE, the abundance fitness is -0.785 ± 0.13. The result for NMTTNERRVIVPADPTLWSTDHVRQILEWAVKEYGLPDVNILLFQNIDGKELCKMTKDDFQRLTPSYNADILLSHLHYLRE reads -0.942 ± 0.25; that for NMTTNERRVIVPADPTLWSTDHVRQWLEEAVKEYGLPDVNILLFQNIDGKELCKMTKDDFQRLTPSYNADILLSHLHYLRE, 0.127 ± 0.045; that for NMTTNERRVIVPADPTLWSTDHVRQWLELAVKEYGLPDVNILLFQNIDGKELCKMTKDDFQRLTPSYNADILLSHLHYLRE, -0.168 ± 0.054.

Regarding NMTTNERRVIVPADPTLWSTDHVRQWLEHAVKEYGLPDVNILLFQNIDGKELCKMTKDDFQRLTPSYNADILLSHLHYLRE, the abundance fitness was determined as 0.082 ± 0.085. With NMTTNERRVIVPADPTLWSTDHVRQWLEMAVKEYGLPDVNILLFQNIDGKELCKMTKDDFQRLTPSYNADILLSHLHYLRE the figure was -0.038 ± 0.055. The result for NMTTNERRVIVPADPTLWSTDHVRQWLEPAVKEYGLPDVNILLFQNIDGKELCKMTKDDFQRLTPSYNADILLSHLHYLRE reads -1.08 ± 0.31.
